Reference: US20230227548A1 (published 2023)
Numbering of substitutions follows the chain as printed. Names may count otherwise. One block for each binder: values may come before it.

Assays:
human GPRC5D [1] = target: T1, human GPRC5D (human, UniProt Q9NZD1 1-345); assay: FACS, MM patient MM303BM bone marrow MNCs (plasma cells)
T1 construct: on transfected HEK293 or RBL cells, or endogenous on MM1R, H929, OPM2, LP-1, JIM3 and patient plasma cells; also called G-protein coupled receptor family C group 5 member D; hGPRC5D
T1 sequence (Q9NZD1 whole entry): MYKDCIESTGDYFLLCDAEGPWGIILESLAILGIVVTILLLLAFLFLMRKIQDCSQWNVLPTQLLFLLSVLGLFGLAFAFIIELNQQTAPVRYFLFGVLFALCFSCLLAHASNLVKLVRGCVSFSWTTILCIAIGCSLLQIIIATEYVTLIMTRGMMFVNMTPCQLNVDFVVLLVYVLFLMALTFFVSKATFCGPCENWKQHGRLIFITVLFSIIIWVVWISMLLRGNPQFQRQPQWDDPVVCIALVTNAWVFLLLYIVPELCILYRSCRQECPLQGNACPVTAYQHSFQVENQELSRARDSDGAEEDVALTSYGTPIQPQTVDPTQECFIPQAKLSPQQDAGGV

human GPRC5D [2] = target: T1, human GPRC5D; assay: FACS, MM patient MM305BM bone marrow MNCs (plasma cells)
human GPRC5D [3] = target: T1, human GPRC5D; assay: cell-based or functional assay
human GPRC5D [4] = target: T1, human GPRC5D; assay: cell-based or functional assay; remark: listed apart in the source
human GPRC5D [5] = target: T1, human GPRC5D; assay: cell-based or functional assay; remark: listed apart in the source
cyno GPRC5D [6] = target: T2, cyno GPRC5D (cyno, UniProt Q9NZD1 1-343 (human entry)); assay: cell-based or functional assay
T2 chain: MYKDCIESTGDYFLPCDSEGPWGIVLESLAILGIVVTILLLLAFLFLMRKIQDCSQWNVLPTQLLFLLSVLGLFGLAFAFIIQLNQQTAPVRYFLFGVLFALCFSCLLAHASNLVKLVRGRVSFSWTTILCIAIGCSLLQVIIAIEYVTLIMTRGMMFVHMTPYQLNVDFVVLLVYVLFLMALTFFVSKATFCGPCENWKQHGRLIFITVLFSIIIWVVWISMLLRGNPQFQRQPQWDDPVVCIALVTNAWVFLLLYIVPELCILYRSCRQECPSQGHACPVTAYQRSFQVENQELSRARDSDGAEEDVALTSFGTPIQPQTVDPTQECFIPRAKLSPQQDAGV

cyno GPRC5D [7] = target: T2, cyno GPRC5D; assay: cell-based or functional assay
human GPRC5D [8] = target: T1, human GPRC5D; assay: FACS, human GPRC5D cells
cyno GPRC5D [9] = target: T2, cyno GPRC5D; assay: FACS, cyno GPRC5D cells, 1 ug/ml

EC50 (human GPRC5D [1]): 16.1 nM
EC50 (human GPRC5D [2]): 70.4 nM
B1: GCDB32 (bispecific antibody, IgG4, V domains shown)
VH 1: EVQLVESGGGLVQPGGSLRLSCAASGFTFNTYAMNWVRQAPGKGLEWVARIRSKYNNYATYYAASVKGRFTISRDDSKNSLYLQMNSLKTEDTAVYYCARHGNFGNSYVSWFAYWGQGTLVTVSS
VL 1: QTVVTQEPSLTVSPGGTVTLTCRSSTGAVTTSNYANWVQQKPGQAPRGLIGGTNKRAPGTPARFSGSLLGGKAALTLSGVQPEDEAEYYCALWYSNLWVFGGGTKLTVL
VH 2: not shown
VL 2: not shown
notes: IgG4-PAA by Fab arm exchange; first VH/VL = CD3B219 arm (IgG4 S228P, L234A, L235A, F405L, R409K); also called GC5B81 x CD3B219
T-cell mediated cytotoxicity EC50, H929 (n = 5) (human GPRC5D [3]): 0.39 nM
T-cell mediated cytotoxicity EC50, MM1R (n = 3) (human GPRC5D [3]): 0.12 nM
T-cell mediated cytotoxicity EC50, H929 cells (human GPRC5D [4]): 0.45 nM
T-cell mediated cytotoxicity EC50, LP-1 (human GPRC5D [4]): 1.02 nM
T-cell mediated cytotoxicity EC50, MM1R (human GPRC5D [4]): 0.04 nM
T-cell mediated cytotoxicity EC50, OPM2 (human GPRC5D [4]): 0.98 nM
T-cell redirection cytotoxicity EC50, human GPRC5D HEK cells (human GPRC5D [5]): 0.04 nM

B2: GCDB72 (bispecific antibody, IgG4, V domains shown)
VH 1: B1 VH 1
VL 1: B1 VL 1
VH 2: QVQLVQSGAEVKKPGASVKVSCKASGYSFTGYTMNWVRQAPGQGLEWMGLINPYNSDTNYAQKLQGRVTMTTDTSTSTAYMELRSLRSDDTAVYYCARVALRVALDYWGQGTLVTVSS
VL 2: DIQMTQSPSSLSASVGDRVTITCKASQNVATHVGWYQQKPGKAPKRLIYSASYRYSGVPSRFSGSGSGTEFTLTISNLQPEDFATYYCQQYNRYPYTFGQGTKLEIK
T-cell redirection cytotoxicity EC50, cyno GPRC5D HEK cells (cyno GPRC5D [6]): 3.41 nM

B3: GCDB45 (bispecific antibody, V domains shown)
VH 1: B1 VH 1
VL 1: B1 VL 1
VH 2: EVQLVQSGAEVKKPGESLKISCKGSGYSFTSYWIGWVRQMPGKGLEWMGIIYPGDSDTRYSPSFQGQVTISADKSISTAYLQWSSLKASDTAMYYCARIGFYGRSFRIFDYWGQGTLVTVSS
VL 2: EIVLTQSPATLSLSPGERATLSCRASQSVSSYLAWYQQKPGQAPRLLIYDASNRATGIPARFSGSGSGTDFTLTISSLEPEDFAVYYCQQRSNWPLTFGQGTKVEIK
T cell mediated target cell killing, Cyno GPRC5D EC50 (cyno GPRC5D [7]): 2.82 nM
T-cell mediated cytotoxicity EC50, H929 (n = 5) (human GPRC5D [3]): 2.25 nM
T-cell mediated cytotoxicity EC50, MM1R (n = 3) (human GPRC5D [3]): 0.91 nM

EC50 (human GPRC5D [1]): 5.53 nM
EC50 (human GPRC5D [2]): 6.93 nM
B4: GCDB61 (bispecific antibody, IgG4, V domains shown)
VH 1: B1 VH 1
VL 1: B1 VL 1
VH 2: EVQLVQSGAEVKKPGESLKISCKGSGYSFTSYFIGWVRQMPGKGLEWMGIIYPGKSDTRYSPSFQGQVTISADKSISTAYLQWSSLKASDTAMYYCARVYSFGGRHKALFDYWGQGTLVTVSS
VL 2: B3 VL 2
notes: IgG4-PAA; first VH/VL = CD3B219 arm (adds F405L, R409K), second = GC5B483 arm; also called GC5B483 x CD3B219
T-cell mediated cytotoxicity EC50, H929 cells (human GPRC5D [4]): 0.39 nM
T-cell mediated cytotoxicity EC50, LP-1 (human GPRC5D [4]): 1.67 nM
T-cell mediated cytotoxicity EC50, MM1R (human GPRC5D [4]): 0.06 nM
T-cell mediated cytotoxicity EC50, OPM2 (human GPRC5D [4]): 1.46 nM
T-cell redirection cytotoxicity EC50, cyno GPRC5D HEK cells (cyno GPRC5D [6]): 1.22 nM
T-cell redirection cytotoxicity EC50, human GPRC5D HEK cells (human GPRC5D [5]): 0.03 nM

EC50 (human GPRC5D [1]): 3.98 nM
EC50 (human GPRC5D [2]): 10.2 nM
B5: GCDB53 (bispecific antibody, IgG4, V domains shown)
VH 1: B1 VH 1
VL 1: B1 VL 1
VH 2: not shown
VL 2: not shown
notes: IgG4-PAA; first VH/VL = CD3B219 arm (adds F405L, R409K), second = GC5B465 arm; also called GC5B465 x CD3B219
T-cell mediated cytotoxicity EC50, H929 cells (human GPRC5D [4]): 0.69 nM
T-cell mediated cytotoxicity EC50, LP-1 (human GPRC5D [4]): 1.58 nM
T-cell mediated cytotoxicity EC50, MM1R (human GPRC5D [4]): 0.28 nM
T-cell mediated cytotoxicity EC50, OPM2 (human GPRC5D [4]): 2.83 nM
T-cell redirection cytotoxicity EC50, cyno GPRC5D HEK cells (cyno GPRC5D [6]): 0.36 nM
T-cell redirection cytotoxicity EC50, human GPRC5D HEK cells (human GPRC5D [5]): 0.08 nM

binding result (human GPRC5D [8]): binds
B6: GC5B540 (antibody, V domains shown)
VH: QVTLKESGPVLVKPTETLTLTCTVSGFSLTSYNVHWIRQPPGKALEWLAVIWAGGSTNYNSALMSRLTISKDTSKSQVVLTMTNMRAEDTATYYCARDGIRLRFAYWGQGTLVTVSS
VL: EIVMTQSPATLSVSPGERATLSCKASQNVATHVGWYQQKPGQAPRLLIYSASYRYSGIPARFSGSGSGTEFTLTISSLQSEDFAVYYCQQYNRYPYTFGQGTKLEIK
notes: HFA of GC5B396: GC5H240 + GC5L58; IgG4

MFI (cyno GPRC5D [9]): 22000
B7: GC5B163 (antibody, V domains shown)
VH: B4 VH 2 with F33W, K55D
VL: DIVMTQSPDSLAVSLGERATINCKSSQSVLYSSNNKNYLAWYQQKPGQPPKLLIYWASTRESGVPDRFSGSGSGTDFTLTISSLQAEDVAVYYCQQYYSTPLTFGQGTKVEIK

MFI (cyno GPRC5D [9]): 63300
B8: GC5B252 (antibody, V domains shown)
VH: QVQLVQSGAEVKKPGSSVKVSCKASGGTFSSYGISWVRQAPGQGLEWMGGIIPIFGNINYAQKFQGRVTITADESTSTAYMELSSLRSEDTAVYYCARVSRRFKRFAYYFDYWGQGTLVTVSS
VL: B3 VL 2
